Data reported in paper PMC3617921.

Target: MBP-Brh2 (U. maydis)
Assay: pull-down

- fold lower level of Dss1 in the DNA-bound fraction than with Brh2Δ362–493::OB-AB: > 20 fold
Substance: hexahistidine (His)-tagged Dss1 (natural protein)
